The values that follow come from article PMC3245869 (Molecular cell, 2008).

The assay deals with T1, Rnr2-Rnr4 heterodimer (ribonucleotide reductase small subunit) (S. cerevisiae, UniProt P09938 1-399; P49723 1-345).
T1 sequence (looked up) 1: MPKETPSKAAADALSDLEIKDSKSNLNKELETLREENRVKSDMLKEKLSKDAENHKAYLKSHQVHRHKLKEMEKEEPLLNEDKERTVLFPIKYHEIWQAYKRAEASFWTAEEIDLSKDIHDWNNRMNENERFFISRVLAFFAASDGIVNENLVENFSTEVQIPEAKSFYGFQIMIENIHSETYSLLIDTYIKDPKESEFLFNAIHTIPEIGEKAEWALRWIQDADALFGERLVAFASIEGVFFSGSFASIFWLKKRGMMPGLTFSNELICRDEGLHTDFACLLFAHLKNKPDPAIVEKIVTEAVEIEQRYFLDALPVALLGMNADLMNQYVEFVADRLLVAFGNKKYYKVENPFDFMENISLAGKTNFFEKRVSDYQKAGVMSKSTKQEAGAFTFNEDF
T1 sequence (looked up) 2: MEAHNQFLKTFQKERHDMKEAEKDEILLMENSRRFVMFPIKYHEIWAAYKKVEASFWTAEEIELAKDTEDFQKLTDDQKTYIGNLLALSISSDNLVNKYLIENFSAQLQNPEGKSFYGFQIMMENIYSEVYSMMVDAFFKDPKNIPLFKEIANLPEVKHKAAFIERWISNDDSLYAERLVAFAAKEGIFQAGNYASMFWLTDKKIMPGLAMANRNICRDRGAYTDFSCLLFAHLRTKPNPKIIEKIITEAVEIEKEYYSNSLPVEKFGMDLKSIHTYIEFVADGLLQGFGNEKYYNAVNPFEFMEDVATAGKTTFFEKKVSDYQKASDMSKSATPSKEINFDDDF
Nature of the assay: SPR.

B1: Recombinant wild-type Dif1 protein (His6-Dif1) (natural protein, S. cerevisiae, UniProt O13577 1-133, looked up)
chain: MDAQLEWASSLVPKRQLQQQQQQQEQQQQQQQDFHKDQLMTVGMRIRQRVDQGYASRTPSTSDASLQPGVIRDYSSVIVPQFTRSPLPTANSLPPMLINQRTMSTEASSLEKWDVAEPAAEHETMVNGSKRRL
In turn, B1 displayed a dissociation constant Kd of 600 nM.
